Results published in patent US20240117018A1.

Assays:
Assay in all cases: cell-based or functional assay
[1] = target: Q461.e2 Env pseudovirus (HIV-1)
[2] = target: Q23.17 Env pseudovirus (HIV-1)
[3] = target: 6535.3 Env pseudovirus (HIV-1)
[4] = target: WEAU_d15_410_787 Env pseudovirus (HIV-1)

B1: N49P22 (antibody, V domains shown)
V domain 1: HIQLLQSGPQVKKSGDTVRISCETSGYNFVDSRIHWVRQTPEKRLRWMGWINPLQGGVNYAPEFQGRIRMTRDTFIDTVYVDLSGLTPADTAYYYCARGIDGKSYPFHFWGHGTRVTVFS
V domain 2: RFALTQPASVSGSPGQTITITCAGGSVSWFHFPPGKTPRLIIYESSKRPSGVSPRFSGSQSGSTASLIISGLQSDDEGTYFCSILEFFGRGTLVTVLS
[1]
  IC50: 11.2 µg/mL
  IC80: > 50 µg/mL
  MPI: 66
[2]
  IC50: 0.321 µg/mL
  IC80: 2.4 µg/mL
  MPI: 96
[3]
  IC50: > 50 µg/mL
  IC80: > 50 µg/mL
  MPI: 5
[4]
  IC50: 1.54 µg/mL
  IC80: > 50 µg/mL
  MPI: 76

B2: N49P23 (antibody, V domains shown)
VH: QVRLVQSGAGARKTGASMKLSCSTSGYTFTTHHGHFINWVRQARGQGLEWMGWMNPMTGQMNIEGKFQGRVTLTRDIYSDTAYMEMTRLTTGDTGTYYCARGDFGQNYPFHYWGQGSLVIVSS
VL: LSALTQPASVSGSPGQSVTISCSGTNRYLVSWYQQHPDKAPKLIIYDDNKRPSGISDRFSASRPDDTASLTISGLQTGDEATYWCASYERFGGGTRLTVLS
[1]
  IC50: 0.099 µg/mL
  IC80: 0.464 µg/mL
  MPI: 100
[2]
  IC50: 0.01 µg/mL
  IC80: 0.046 µg/mL
  MPI: 100
[3]
  IC50: 0.127 µg/mL
  IC80: 0.855 µg/mL
  MPI: 100
[4]
  IC50: 0.009 µg/mL
  IC80: 0.031 µg/mL
  MPI: 100
